Among the data in patent publication US20090048161A1 are Kd values, retold here.

Where no end group is shown, it is not given here. [ ]: non-standard residue; d: D form.

The target in the experiment is IL-1R on freshly isolated rat thymocytes (rat) (UniProt Q02955). Nature of the experiment: radioligand binding on freshly isolated rat thymocytes: displacement of 6 nM I^125-API-101.10 by increasing non-radioactive API-101.10 (printed as 'affinity').

On to [dR][dY][dT][dV][dE][dL][dA] (also: 125I-labelled form used as tracer, site not given here) [API-101.10], for which the dissociation constant Kd is 1000 nM.
